Measurements as given in patent US20140087995A1 (published 2014).
Numbered stars: 1 amine (or outer) side, 2 acyl side, 3 side chain; on linkers, the order of the positions; unused ones are H or OH. Bridge positions count the residues as written; N and C are the ends. Side chains are listed from the residue outwards. Ends that are not written are not given here. * marks the point of attachment. C20 diacid = O=C(O)CCCCCCCCCCCCCCCCCCC(=O)*; C18 diacid = O=C(O)CCCCCCCCCCCCCCCCC(=O)*; C16 diacid = O=C(O)CCCCCCCCCCCCCCC(=O)*; γGlu = O=C(O)[C@H](CCC(=O)[*:2])N[*:1]; C14 diacid = O=C(O)CCCCCCCCCCCCC(=O)*; AEEA = NCCOCCOCC(=O)O

T1: human calcitonin receptor (human, UniProt P30988 25-474)
T1 sequence (looked up): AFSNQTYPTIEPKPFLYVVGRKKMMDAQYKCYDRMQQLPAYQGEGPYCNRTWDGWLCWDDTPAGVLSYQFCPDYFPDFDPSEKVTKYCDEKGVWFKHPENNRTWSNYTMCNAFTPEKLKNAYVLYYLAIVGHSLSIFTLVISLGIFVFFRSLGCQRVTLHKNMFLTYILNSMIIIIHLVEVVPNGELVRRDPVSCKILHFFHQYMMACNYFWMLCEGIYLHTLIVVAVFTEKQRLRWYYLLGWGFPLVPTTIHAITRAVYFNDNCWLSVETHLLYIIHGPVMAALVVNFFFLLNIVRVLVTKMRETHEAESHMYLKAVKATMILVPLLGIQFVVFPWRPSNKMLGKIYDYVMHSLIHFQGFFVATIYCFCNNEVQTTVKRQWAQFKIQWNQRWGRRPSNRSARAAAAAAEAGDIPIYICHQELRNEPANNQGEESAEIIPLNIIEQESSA

T2: human amylin receptor (amylin 3(a) receptor: human calcitonin receptor coexpressed with RAMP-3) (human, UniProt P30988 25-474; O60896 24-148)
T2 sequence (looked up) 1: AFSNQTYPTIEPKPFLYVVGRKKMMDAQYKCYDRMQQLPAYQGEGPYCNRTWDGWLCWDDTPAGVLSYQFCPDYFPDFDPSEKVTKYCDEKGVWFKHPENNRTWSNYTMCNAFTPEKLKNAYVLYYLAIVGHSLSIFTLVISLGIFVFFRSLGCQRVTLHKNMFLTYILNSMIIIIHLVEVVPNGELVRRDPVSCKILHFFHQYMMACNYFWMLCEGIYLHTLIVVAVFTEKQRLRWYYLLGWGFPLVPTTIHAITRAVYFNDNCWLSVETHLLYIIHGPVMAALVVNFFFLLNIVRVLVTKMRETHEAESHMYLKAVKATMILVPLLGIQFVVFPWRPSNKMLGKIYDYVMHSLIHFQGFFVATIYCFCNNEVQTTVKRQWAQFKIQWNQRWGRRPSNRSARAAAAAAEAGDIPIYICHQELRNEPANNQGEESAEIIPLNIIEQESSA
T2 sequence (looked up) 2: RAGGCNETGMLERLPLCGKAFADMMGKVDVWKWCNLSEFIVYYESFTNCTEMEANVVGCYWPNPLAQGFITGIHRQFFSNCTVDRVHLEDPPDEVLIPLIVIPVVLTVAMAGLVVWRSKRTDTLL


How the values were obtained:
[1] = target: T1, human calcitonin receptor; assay: cell-based or functional assay
[2] = target: T2, human amylin receptor (amylin 3(a) …); assay: cell-based or functional assay

Ratio hCT/hAmylin funct. [1]	hCTR funct. EC50 (pM) [1]	hAmylin-R funct. EC50 (pM) [2]	Binder
10	818 pM	82 pM	{C20 diacid-γGlu}-GRCNTATCATQRLAHFLRHSSPNFGAIPSSTNVGSNTY-NH2 (disulfide 3-8; SMILES CC[C@H](C)[C@H](NC(=O)[C@H](C)NC(=O)CNC(=O)[C@H](Cc1ccccc1)NC(=O)[C@H](CC(N)=O)NC(=O)[C@@H]1CCCN1C(=O)[C@H](CO)NC(=O)[C@H](CO)NC(=O)[C@H](Cc1c[nH]cn1)NC(=O)[C@H](CCCNC(=N)N)NC(=O)[C@H](CC(C)C)NC(=O)[C@H](Cc1ccccc1)NC(=O)[C@H](Cc1c[nH]cn1)NC(=O)[C@H](C)NC(=O)[C@H](CC(C)C)NC(=O)[C@H](CCCNC(=N)N)NC(=O)[C@H](CCC(N)=O)NC(=O)[C@@H](NC(=O)[C@H](C)NC(=O)[C@@H]1CSSC[C@H](NC(=O)[C@H](CCCNC(=N)N)NC(=O)CNC(=O)CC[C@H](NC(=O)CCCCCCCCCCCCCCCCCCC(=O)O)C(=O)O)C(=O)N[C@@H](CC(N)=O)C(=O)N[C@@H]([C@@H](C)O)C(=O)N[C@@H](C)C(=O)N[C@@H]([C@@H](C)O)C(=O)N1)[C@@H](C)O)C(=O)N1CCC[C@H]1C(=O)N[C@@H](CO)C(=O)N[C@@H](CO)C(=O)N[C@H](C(=O)N[C@@H](CC(N)=O)C(=O)N[C@H](C(=O)NCC(=O)N[C@@H](CO)C(=O)N[C@@H](CC(N)=O)C(=O)N[C@H](C(=O)N[C@@H](Cc1ccc(O)cc1)C(N)=O)[C@@H](C)O)C(C)C)[C@@H](C)O, 38 residues: Gly added before position 1 of human amylin; also called compound 99)
36.9	1480 pM	40 pM	K([AEEA-C20 diacid])CNTATCATQRLANFLRHSSPNFGAIPSSTNVGHNTY-NH2 (disulfide 2-7; N-terminus assumed; SMILES CC[C@H](C)[C@H](NC(=O)[C@H](C)NC(=O)CNC(=O)[C@H](Cc1ccccc1)NC(=O)[C@H](CC(N)=O)NC(=O)[C@@H]1CCCN1C(=O)[C@H](CO)NC(=O)[C@H](CO)NC(=O)[C@H](Cc1c[nH]cn1)NC(=O)[C@H](CCCNC(=N)N)NC(=O)[C@H](CC(C)C)NC(=O)[C@H](Cc1ccccc1)NC(=O)[C@H](CC(N)=O)NC(=O)[C@H](C)NC(=O)[C@H](CC(C)C)NC(=O)[C@H](CCCNC(=N)N)NC(=O)[C@H](CCC(N)=O)NC(=O)[C@@H](NC(=O)[C@H](C)NC(=O)[C@@H]1CSSC[C@H](NC(=O)[C@@H](N)CCCCNC(=O)COCCOCCNC(=O)CCCCCCCCCCCCCCCCCCC(=O)O)C(=O)N[C@@H](CC(N)=O)C(=O)N[C@@H]([C@@H](C)O)C(=O)N[C@@H](C)C(=O)N[C@@H]([C@@H](C)O)C(=O)N1)[C@@H](C)O)C(=O)N1CCC[C@H]1C(=O)N[C@@H](CO)C(=O)N[C@@H](CO)C(=O)N[C@H](C(=O)N[C@@H](CC(N)=O)C(=O)N[C@H](C(=O)NCC(=O)N[C@@H](Cc1c[nH]cn1)C(=O)N[C@@H](CC(N)=O)C(=O)N[C@H](C(=O)N[C@@H](Cc1ccc(O)cc1)C(N)=O)[C@@H](C)O)C(C)C)[C@@H](C)O, also called compound 91) [N^ε1-[2-[2-[2-(19-carboxynonadecanoylamino)ethoxy]ethoxy]acetyl]-[Arg17,Pro21,Pro27,His34]-h-amylin]
33	11800 pM	356 pM	K([AEEA-AEEA-γGlu-C20 diacid])CNTATCATQRLANFLRHSSPNFGAIPSSTNVGHNTY-NH2 (disulfide 2-7; N-terminus assumed; SMILES CC[C@H](C)[C@H](NC(=O)[C@H](C)NC(=O)CNC(=O)[C@H](Cc1ccccc1)NC(=O)[C@H](CC(N)=O)NC(=O)[C@@H]1CCCN1C(=O)[C@H](CO)NC(=O)[C@H](CO)NC(=O)[C@H](Cc1c[nH]cn1)NC(=O)[C@H](CCCNC(=N)N)NC(=O)[C@H](CC(C)C)NC(=O)[C@H](Cc1ccccc1)NC(=O)[C@H](CC(N)=O)NC(=O)[C@H](C)NC(=O)[C@H](CC(C)C)NC(=O)[C@H](CCCNC(=N)N)NC(=O)[C@H](CCC(N)=O)NC(=O)[C@@H](NC(=O)[C@H](C)NC(=O)[C@@H]1CSSC[C@H](NC(=O)[C@@H](N)CCCCNC(=O)COCCOCCNC(=O)COCCOCCNC(=O)CC[C@H](NC(=O)CCCCCCCCCCCCCCCCCCC(=O)O)C(=O)O)C(=O)N[C@@H](CC(N)=O)C(=O)N[C@@H]([C@@H](C)O)C(=O)N[C@@H](C)C(=O)N[C@@H]([C@@H](C)O)C(=O)N1)[C@@H](C)O)C(=O)N1CCC[C@H]1C(=O)N[C@@H](CO)C(=O)N[C@@H](CO)C(=O)N[C@H](C(=O)N[C@@H](CC(N)=O)C(=O)N[C@H](C(=O)NCC(=O)N[C@@H](Cc1c[nH]cn1)C(=O)N[C@@H](CC(N)=O)C(=O)N[C@H](C(=O)N[C@@H](Cc1ccc(O)cc1)C(N)=O)[C@@H](C)O)C(C)C)[C@@H](C)O, also called compound 97)
38.8	1090 pM	28 pM	K([γGlu-C14 diacid])CNTATCATQRLANFLRHSSPNFGAIPSSTNVGHNTY-NH2 (disulfide 2-7; N-terminus assumed; SMILES CC[C@H](C)[C@H](NC(=O)[C@H](C)NC(=O)CNC(=O)[C@H](Cc1ccccc1)NC(=O)[C@H](CC(N)=O)NC(=O)[C@@H]1CCCN1C(=O)[C@H](CO)NC(=O)[C@H](CO)NC(=O)[C@H](Cc1c[nH]cn1)NC(=O)[C@H](CCCNC(=N)N)NC(=O)[C@H](CC(C)C)NC(=O)[C@H](Cc1ccccc1)NC(=O)[C@H](CC(N)=O)NC(=O)[C@H](C)NC(=O)[C@H](CC(C)C)NC(=O)[C@H](CCCNC(=N)N)NC(=O)[C@H](CCC(N)=O)NC(=O)[C@@H](NC(=O)[C@H](C)NC(=O)[C@@H]1CSSC[C@H](NC(=O)[C@@H](N)CCCCNC(=O)CC[C@H](NC(=O)CCCCCCCCCCCCC(=O)O)C(=O)O)C(=O)N[C@@H](CC(N)=O)C(=O)N[C@@H]([C@@H](C)O)C(=O)N[C@@H](C)C(=O)N[C@@H]([C@@H](C)O)C(=O)N1)[C@@H](C)O)C(=O)N1CCC[C@H]1C(=O)N[C@@H](CO)C(=O)N[C@@H](CO)C(=O)N[C@H](C(=O)N[C@@H](CC(N)=O)C(=O)N[C@H](C(=O)NCC(=O)N[C@@H](Cc1c[nH]cn1)C(=O)N[C@@H](CC(N)=O)C(=O)N[C@H](C(=O)N[C@@H](Cc1ccc(O)cc1)C(N)=O)[C@@H](C)O)C(C)C)[C@@H](C)O) [N^ε1-[(4S)-4-carboxy-4-(13-carboxytridecanoylamino)butanoyl]-[Arg17,Pro21,Pro27,His34]-h-amylin]
60.9	5850 pM	96 pM	K([γGlu-C18 diacid])CNTATCATQRLANFLRHSSPNFGAIPSSTNVGHNTY-NH2 (disulfide 2-7; N-terminus assumed; SMILES CC[C@H](C)[C@H](NC(=O)[C@H](C)NC(=O)CNC(=O)[C@H](Cc1ccccc1)NC(=O)[C@H](CC(N)=O)NC(=O)[C@@H]1CCCN1C(=O)[C@H](CO)NC(=O)[C@H](CO)NC(=O)[C@H](Cc1c[nH]cn1)NC(=O)[C@H](CCCNC(=N)N)NC(=O)[C@H](CC(C)C)NC(=O)[C@H](Cc1ccccc1)NC(=O)[C@H](CC(N)=O)NC(=O)[C@H](C)NC(=O)[C@H](CC(C)C)NC(=O)[C@H](CCCNC(=N)N)NC(=O)[C@H](CCC(N)=O)NC(=O)[C@@H](NC(=O)[C@H](C)NC(=O)[C@@H]1CSSC[C@H](NC(=O)[C@@H](N)CCCCNC(=O)CC[C@H](NC(=O)CCCCCCCCCCCCCCCCC(=O)O)C(=O)O)C(=O)N[C@@H](CC(N)=O)C(=O)N[C@@H]([C@@H](C)O)C(=O)N[C@@H](C)C(=O)N[C@@H]([C@@H](C)O)C(=O)N1)[C@@H](C)O)C(=O)N1CCC[C@H]1C(=O)N[C@@H](CO)C(=O)N[C@@H](CO)C(=O)N[C@H](C(=O)N[C@@H](CC(N)=O)C(=O)N[C@H](C(=O)NCC(=O)N[C@@H](Cc1c[nH]cn1)C(=O)N[C@@H](CC(N)=O)C(=O)N[C@H](C(=O)N[C@@H](Cc1ccc(O)cc1)C(N)=O)[C@@H](C)O)C(C)C)[C@@H](C)O) [N^ε1-[(4S)-4-carboxy-4-(17-carboxyheptadecanoylamino)butanoyl]-[Arg17,Pro21,Pro27,His34]-h-amylin]
65.1	2210 pM	34 pM	K([γGlu-C16 diacid])CNTATCATQRLANFLRHSSPNFGAIPSSTNVGHNTY-NH2 (disulfide 2-7; N-terminus assumed; SMILES CC[C@H](C)[C@H](NC(=O)[C@H](C)NC(=O)CNC(=O)[C@H](Cc1ccccc1)NC(=O)[C@H](CC(N)=O)NC(=O)[C@@H]1CCCN1C(=O)[C@H](CO)NC(=O)[C@H](CO)NC(=O)[C@H](Cc1c[nH]cn1)NC(=O)[C@H](CCCNC(=N)N)NC(=O)[C@H](CC(C)C)NC(=O)[C@H](Cc1ccccc1)NC(=O)[C@H](CC(N)=O)NC(=O)[C@H](C)NC(=O)[C@H](CC(C)C)NC(=O)[C@H](CCCNC(=N)N)NC(=O)[C@H](CCC(N)=O)NC(=O)[C@@H](NC(=O)[C@H](C)NC(=O)[C@@H]1CSSC[C@H](NC(=O)[C@@H](N)CCCCNC(=O)CC[C@H](NC(=O)CCCCCCCCCCCCCCC(=O)O)C(=O)O)C(=O)N[C@@H](CC(N)=O)C(=O)N[C@@H]([C@@H](C)O)C(=O)N[C@@H](C)C(=O)N[C@@H]([C@@H](C)O)C(=O)N1)[C@@H](C)O)C(=O)N1CCC[C@H]1C(=O)N[C@@H](CO)C(=O)N[C@@H](CO)C(=O)N[C@H](C(=O)N[C@@H](CC(N)=O)C(=O)N[C@H](C(=O)NCC(=O)N[C@@H](Cc1c[nH]cn1)C(=O)N[C@@H](CC(N)=O)C(=O)N[C@H](C(=O)N[C@@H](Cc1ccc(O)cc1)C(N)=O)[C@@H](C)O)C(C)C)[C@@H](C)O) [N^ε1-[(4S)-4-carboxy-4-(15-carboxypentadecanoylamino)butanoyl]-[Arg17,Pro21,Pro27,His34]-h-amylin]
